Experimental findings from patent publication US20080153773A1, “MODULATORS OF PHOSPHOTYROSYL PHOSPHATASE ACTIVATOR” (priority 2006, published 2008) are described below.

Substitutions are numbered along the chain they refer to. In names and notes the source's numbering stands.

Data set [1] concerns the target T1, PP2A A-C dimer (Homo sapiens, UniProt P67775).
T1 construct: GST (N); His8 (N); made in house; C subunit: baculovirus / insect cells; dimer assembled in vitro
As to the kind of experiment: pNPPase activity assay. The format is biochemical. The following applies: for stimulation of pNPPase activity of PP2A by PTPA or PTPA mutant: FIG. 6B/6C. The method, then: (§1) The phosphatase activity using pNPP as substrate was performed on a 96-well plate. Briefly, 50 μl of 50 mM pNPP dissolved in 50 mM Tris-HCl (pH 8.2) buffer containing 1 mM DTT, 10 mM MgCl2 and 0.1 mg/ml BSA was added to each well. The reaction was initiated by addition of 10 μl of PP2A samples in the presence or absence of ATP and PTPA. The plate was incubated at 37° C. for 5-20 minutes and the enzymatic reaction product was measured by the absorbance at 405 nm using a plate reader.

Data set [2] relates to PTPA-PP2A A-C dimer complex. In words: ATPase activity assay (Malachite Green). The following applies: for ATPase activity: with equi-molar amount of PP2A A-C dimer. The format is biochemical, human. The method, then: (§2) Protein samples were prepared in 100 mM NaCl, 20 mM HEPES, pH 7.5, and 2 mM dithiothreitol. The release of free phosphate group was measured by the calorimetric Malachite Green Reagent (BioAssay Systems, Hayward, Calif.) using NaH2PO4 as phosphate standard. The protein concentration was determined by a combination of OD absorption at 280 nm and Bio-Rad Protein Assay (Bio-Rad).

Data set [3] deals with T1, PP2A A-C dimer. As to the kind of experiment: Phosphorylase a phosphatase assay (pSer activity). The format is biochemical. As for the experimental part:
(§3) To measure the phosphatase activity of PP2A, 5 μl of each PP2A sample was added to 45 μl of 0.5 mg/ml of radio-labeled ^32P-phosphorylase b dissolved in 50 mM MOPS buffer containing 1 mM DTT and 5 mM caffeine. Reactions were performed at 37° C. for 10 minutes, and stopped by addition of 10% TCA and 0.5 mg/ml BSA. Samples were kept on ice for 10 minutes to allow complete precipitation of proteins, and were centrifuged for 10 minutes at 14K rpm. Supernatants containing the released ^32P were added to 3 ml Ecosint and the intensity was measured by scintillation counter.

Data set [4] concerns the target T2, PTPA-PP2A A-C dimer complex (Homo sapiens, UniProt Q15257).
T2 construct: His6 (C); GST (N); His8 (N); made in house; host or cells: PTPA: E. coli BL21(DE3), pET21b; PP2A C: baculovirus / insect cells
T2 sequence (Q15257 1-323 isoform Q15257-2): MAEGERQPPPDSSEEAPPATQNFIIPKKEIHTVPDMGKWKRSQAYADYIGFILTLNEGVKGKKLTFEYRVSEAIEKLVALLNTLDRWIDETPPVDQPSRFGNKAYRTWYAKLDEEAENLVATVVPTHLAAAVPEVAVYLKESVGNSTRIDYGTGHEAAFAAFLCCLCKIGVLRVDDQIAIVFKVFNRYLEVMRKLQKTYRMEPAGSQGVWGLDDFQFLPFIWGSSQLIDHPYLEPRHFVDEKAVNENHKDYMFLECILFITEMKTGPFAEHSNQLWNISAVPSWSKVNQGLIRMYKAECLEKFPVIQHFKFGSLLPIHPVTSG
As to the kind of experiment: ATPase activity assay (Malachite Green). The format is biochemical. The following applies: PTPA alone, without PP2A; 1 mM ATP and 5 mM Mg2+. As for the experimental part:
as §2

In data set [5] the target is T1, PP2A A-C dimer. As to the kind of experiment: Native polyacrylamide gel electrophoresis (native PAGE) binding. As to conditions: quantification of native-PAGE, FIG. 4C; read-out: dissociation constant between PP2A A-C dimer and PTPA. The method, then: All assays were performed at 4° C. to offset heat generated by electrophoresis. 6% poly-acrylamide (37.5:1 acrylamide:bis-acrylamide) gels were used under the buffer condition of 65 mM Tris, pH 8.5, and 65 mM boric acid. All protein samples were prepared in a 40 μl volume containing 25 mM Tris, pH 8.0, 150 mM NaCl, 2 mM DTT, and 5% glycerol. After pre-running the gels for 15 minutes, half of each sample (20 μl) was loaded into each lane and was subjected to electrophoresis with constant electric field of 15 volts/cm. The gels were stained using coomassie blue, destained, and dried for photography. The gels were scanned by a densitometer, which allowed the estimate of the binding affinity between WT PTPA and PP2A A-C dimer.

The target of data set [6] is T1, PP2A A-C dimer. In words: Phosphotyrosine phosphatase assay using a fluorogenic peptide as the substrate. The format is biochemical. As to conditions: equi-molar PTPA and PP2A, with ATP/Mg2+, FIG. 6G. As for the experimental part: A protein tyrosine phosphatase assay kit (EMD Biosciences) was used to measure phosphotyrosine phosphatase activity. 50 nM PP2A and PTPA, or PTPA mutants were added to a fluorogenic phosphopeptide substrate (MCA-Gly-Asp-Ala-Glu-pTyr-Ala-Ala-Lys(DNP)-Arg-NH2, 1 μM) and incubated at room temperature under very low light conditions. After 10 minutes of incubation, sodium vanadate solution was added to stop the reaction. […] The fluorescent intensity was monitored at 328 nm (excitation) and 395 nm (emission), using a Hitachi F2500 fluorescence spectrophotometer.

The target of data set [7] is T1, PP2A A-C dimer. As to the kind of experiment: Substrate preference of PP2A (phosphorylase b versus pNPP). The following applies: for shift of substrate preference of PP2A from phosphorylase b to pNPP: PTPA mutants, FIG. 6F. The format is biochemical. The method, then: as §1, §3
The target in data set [8] is T1, PP2A A-C dimer. In words: GST-mediated pull-down assay. The format is binding. The following applies: FIG. 4A; mutants compared with WT PTPA. The method, then: Approximately 30 μg of stoichiometric PP2A A-C dimer were bound to 30 μl of glutathione resin via GST-A protein. The resin was washed with 200 μl assay buffer 3 times to remove excess unbound PP2A. Then 10 μg of WT or mutant PTPA were allowed to bind the resin in a 125-μl volume. After washing 4 times with an assay buffer containing 25 mM Tris, pH 8.0, 150 mM NaCl, and 2 mM dithiothreitol (DTT), the remaining protein and resin were mixed with 15-μl SDS sample buffer and applied to SDS-PAGE. The results were visualized by SDS-polyacrylamide gel electrophoresis (SDS-PAGE) with coomassie staining.

T1 sequence (P30153 whole entry partner): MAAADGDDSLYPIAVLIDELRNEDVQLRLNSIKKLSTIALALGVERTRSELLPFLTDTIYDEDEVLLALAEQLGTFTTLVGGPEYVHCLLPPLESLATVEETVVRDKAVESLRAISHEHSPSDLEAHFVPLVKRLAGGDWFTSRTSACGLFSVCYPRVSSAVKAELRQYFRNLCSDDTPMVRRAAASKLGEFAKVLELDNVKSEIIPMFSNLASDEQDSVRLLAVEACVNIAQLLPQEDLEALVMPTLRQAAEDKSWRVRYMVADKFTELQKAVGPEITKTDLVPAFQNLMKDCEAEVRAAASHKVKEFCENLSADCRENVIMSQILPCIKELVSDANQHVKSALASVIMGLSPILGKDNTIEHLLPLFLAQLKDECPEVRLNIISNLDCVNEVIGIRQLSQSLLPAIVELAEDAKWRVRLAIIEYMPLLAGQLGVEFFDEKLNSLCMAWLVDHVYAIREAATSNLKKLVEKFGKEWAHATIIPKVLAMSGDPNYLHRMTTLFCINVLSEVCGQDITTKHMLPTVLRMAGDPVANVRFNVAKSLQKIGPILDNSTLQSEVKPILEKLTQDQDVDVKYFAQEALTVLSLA
T1 sequence (P67775 whole entry): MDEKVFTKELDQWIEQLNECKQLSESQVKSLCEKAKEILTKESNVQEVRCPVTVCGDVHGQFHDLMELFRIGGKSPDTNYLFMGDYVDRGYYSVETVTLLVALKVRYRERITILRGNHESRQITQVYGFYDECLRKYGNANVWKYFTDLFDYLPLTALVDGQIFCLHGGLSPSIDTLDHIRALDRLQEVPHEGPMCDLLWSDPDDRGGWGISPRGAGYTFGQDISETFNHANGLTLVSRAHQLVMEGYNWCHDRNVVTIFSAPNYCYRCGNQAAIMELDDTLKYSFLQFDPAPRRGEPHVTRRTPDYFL

On to `Nc1ncnc2c1ncn2[C@@H]1O[C@H](COP(=O)(O)OP(=O)(O)OP(O)(O)=S)[C@@H](O)[C@H]1O` [ATPγS, reference compound], for which the “stimulation of pNPPase activity of PP2A by ATP analog” value at PP2A A-C dimer [1] (provided to PP2A alone or in the presence of PTPA, FIG. 6B) was “fails to stimulate”.
For `C=C1[C@@H](O)[C@@H]2O[C@]3(CC[C@H](/C=C/[C@@H](C)[C@@H]4CC(C)=C[C@@]5(O[C@H](C[C@@](C)(O)C(=O)O)CC[C@H]5O)O4)O3)CC[C@H]2O[C@@H]1[C@@H](O)C[C@H](C)[C@H]1O[C@@]2(CCCCO2)CC[C@H]1C` [okadaic acid, reference compound], in data set [2] (FIG. 5A), the “inhibition of PTPA/PP2A ATPase activity” value is “inhibited”.
In the case of ATP [ATP/Mg^2+, reference compound], the “effect of ATP/Mg2+ on PP2A pSer activity” value on PP2A A-C dimer [3] (with PTPA or mutants, FIG. 6D) is given as “did not effect”.

B1: phosphotyrosyl phosphatase activator (protein, UniProt Q15257 2-358, looked up)
Serine/threonine-protein …: AEGERQPPPDSSEEAPPATQNFIIPKKEIHTVPDMGKWKRSQAYADYIGFILTLNEGVKGKKLTFEYRVSEMWNEVHEEKEQAAKQSVSCDECIPLPRAGHCAPSEAIEKLVALLNTLDRWIDETPPVDQPSRFGNKAYRTWYAKLDEEAENLVATVVPTHLAAAVPEVAVYLKESVGNSTRIDYGTGHEAAFAAFLCCLCKIGVLRVDDQIAIVFKVFNRYLEVMRKLQKTYRMEPAGSQGVWGLDDFQFLPFIWGSSQLIDHPYLEPRHFVDEKAVNENHKDYMFLECILFITEMKTGPFAEHSNQLWNISAVPSWSKVNQGLIRMYKAECLEKFPVIQHFKFGSLLPIHPVTSG
modifications: His6 tag
On to B1, for which the ATPase activity entry in data set [4] is recorded as “did not exhibit any detectable ATPase activity”; in data set [2] (1 mM ATP and 5 mM Mg2+), “significant ATPase activity”. Also, the “catalytic turnover rate of ATPase activity” value in data set [2] (PTPA with equi-molar PP2A A-C dimer, 1 mM ATP and 5 mM Mg2+) is recorded as “approximately 2 per minute”. Besides, in data set [2] (equi-molar amount of PP2A and PTPA, FIG. 5B), the Michaelis-Menten constant (Km) (commonly the concentration of substrate that gives half-maximal velocity) is approximately 400 µM. The Kd with PP2A A-C dimer [5] is approximately 1000 nM. Also, the “stimulation of pTyr phosphatase activity of PP2A (peptide substrate)” value (“stimulation … (peptide substrate)” below) with PP2A A-C dimer [6] is reported as “enhanced phosphotyrosine phosphatase activity”. In addition, the “shift of substrate preference of PP2A A-C dimer from phosphorylase b to pNPP” value in the data set with PP2A A-C dimer [7] (stoichiometric ratio of 1:1, FIG. 6F) is given as “about 10 fold”. Moreover, the “interaction with PP2A A-C dimer in GST-mediated pull-down” value (shortened to “interaction with PP2A A-C dimer”) with PP2A A-C dimer [8] is “formed a stable complex”. For the same molecule, the “PP2A pSer/pThr activity relative to PP2A alone” value with PP2A A-C dimer [3] (about 20-to-1 molar ratio of PTPA to PP2A (maximal reduction), FIG. 6E) is listed as “approximately 25%”. The “reduction of PP2A pSer activity” value with PP2A A-C dimer [3] (equi-molar amount of WT PTPA, FIG. 6D) is recorded as “approximately 45%”. For the same molecule, in the data set with PP2A A-C dimer [3] (titrated against a fixed amount of PP2A A-C dimer, FIG. 6E), the “effect on pSer activity of PP2A in titration” value is “inhibited the pSer activity of PP2A in a concentration-dependent manor”. Further, the “pNPPase activity of PTPA-stimulated PP2A relative to PP2A in the absence of PTPA” value in the data set with PP2A A-C dimer [1] (equi-molar concentrations, with ATP/Mg2+) was “approximately 6 fold”. Besides, the “stimulation of pNPPase activity of PP2A by PTPA or PTPA mutant” value in the data set with PP2A A-C dimer [1] (with ATP/Mg2+) is on record as “greatly enhanced”.

B2: G205D: missense mutant of human PTPA (protein, UniProt Q15257 2-358, looked up, variant G205D)
Serine/threonine-protein …: B1 Serine/threonine-protein … with G204D
As to B2, in data set [2] (1 mM ATP and 5 mM Mg2+), the ATPase activity result was “significantly lower or undetectable ATPase activity”. Moreover, the “stimulation … (peptide substrate)” value in the data set with PP2A A-C dimer [6] is “did not stimulate”. In addition, the “shift of substrate preference of PP2A from phosphorylase b to pNPP” value with PP2A A-C dimer [7] is “not observed”. In the data set with PP2A A-C dimer [8], the “interaction with PP2A A-C dimer” value is recorded as “did not have a significant effect”. The “stimulation of pNPPase activity of PP2A by PTPA or PTPA mutant” value with PP2A A-C dimer [1] (with ATP/Mg2+) is reported as “do not stimulate”.

B3: V209D: missense mutant of human PTPA (protein, UniProt Q15257 2-358, looked up, variant V209D)
Serine/threonine-protein …: B1 Serine/threonine-protein … with V208D
Turning to B3, the ATPase activity result in data set [2] (1 mM ATP and 5 mM Mg2+) is recorded as “significantly lower or undetectable ATPase activity”. Moreover, the “stimulation … (peptide substrate)” value in the data set with PP2A A-C dimer [6] was “did not stimulate”. The “shift of substrate preference of PP2A from phosphorylase b to pNPP” value with PP2A A-C dimer [7] is reported as “not observed”. Besides, in the data set with PP2A A-C dimer [8], the “interaction with PP2A A-C dimer” value is “significantly compromised binding”.
